{
  "source": "patent US20080050387A1",
  "about": "“Non-Androgen Dependent Roles for Androgen Receptor and Non-Androgen Related Inhibitors of Androgen Receptor” (priority 2003, published 2008)",
  "key": {"AR [1]": {"test_system": "AR", "assay": "AR transactivation reporter gene assay in H1299 cells with ARA67", "format": "cell-based, human", "description": "H1299 and COS-1 cells were maintained in Dulbecco's modified Eagle's medium (DMEM) (Life Technologies, Inc.) supplemented with 10% heat inactivated fetal bovine serum (FBS). LNCap cells were maintained in RPMI 1640 supplemented with […]. All media contain 100 units penicillin, 100 μg/ml streptomycin and 2 mM L-glutamine. Cells were seeded to a density of 50-60% confluency for transfection. In transfections where H1299 and COS-1 cells were used, the calcium phosphate precipitation method was used as described (Pan H J, et al. 1999. Endocrine 11:321-327) unless otherwise noted. […] In other reporter gene assays, where ligand treatment was required, cell culture media were changed to DMEM containing 10% charcoal-dextran-stripped FBS (CD-FBS) 2 h before transfection. After 16-18 h transfection, cells were treated with medium containing either vehicle or ligands for another 20-24 h and then cells were harvested. With LNCap cells transfection, the cells were treated with fresh RPMI 1640 containing 10% CD-FBS before transfection with SuperFect performed according to the manufacturer's protocol (Qiagen). After transfection, cells were allowed to recover in fresh RPMI 1640 containing 10% CD-FBS for 8-12 h, and then treated with either vehicle or ligands for another 20-24 h before harvesting. Each experiment was repeated at least three times."}, "AR [2]": {"test_system": "AR", "assay": "AR protein level in H1299 cells (Western blot)", "format": "cell-based, human", "details": "pSG5-AR and pKH3-ARA67 1 to 6", "description": "Protein samples collected from the cells were separated on 8% SDS-PAGE and transferred to nitrocellulose membranes. Membranes were blocked with 5% nonfat milk in TBST buffer (150 mM NaCl, 10 mM Tris/pH8.0, and 0.5% Tween-20) at room temperature for 1 h. Then the membranes were immunoblotted with primary antibodies for 2 h at room temperature or overnight at 4° C., followed by incubation with secondary antibodies for 1 h at room temperature. Blots were developed with the AP color developing reagents (Bio-Rad)."}, "AR nuclear translocation": {"biological_target": "T1, AR nuclear translocation (Homo sapiens, UniProt P10275, DEL79-80/DUP473-473)", "T1 construct": "expressed in transfected cells; host or cells: COS-1", "T1 sequence (P10275 with tags, fused parts or gaps DEL79-80/DUP473-473)": "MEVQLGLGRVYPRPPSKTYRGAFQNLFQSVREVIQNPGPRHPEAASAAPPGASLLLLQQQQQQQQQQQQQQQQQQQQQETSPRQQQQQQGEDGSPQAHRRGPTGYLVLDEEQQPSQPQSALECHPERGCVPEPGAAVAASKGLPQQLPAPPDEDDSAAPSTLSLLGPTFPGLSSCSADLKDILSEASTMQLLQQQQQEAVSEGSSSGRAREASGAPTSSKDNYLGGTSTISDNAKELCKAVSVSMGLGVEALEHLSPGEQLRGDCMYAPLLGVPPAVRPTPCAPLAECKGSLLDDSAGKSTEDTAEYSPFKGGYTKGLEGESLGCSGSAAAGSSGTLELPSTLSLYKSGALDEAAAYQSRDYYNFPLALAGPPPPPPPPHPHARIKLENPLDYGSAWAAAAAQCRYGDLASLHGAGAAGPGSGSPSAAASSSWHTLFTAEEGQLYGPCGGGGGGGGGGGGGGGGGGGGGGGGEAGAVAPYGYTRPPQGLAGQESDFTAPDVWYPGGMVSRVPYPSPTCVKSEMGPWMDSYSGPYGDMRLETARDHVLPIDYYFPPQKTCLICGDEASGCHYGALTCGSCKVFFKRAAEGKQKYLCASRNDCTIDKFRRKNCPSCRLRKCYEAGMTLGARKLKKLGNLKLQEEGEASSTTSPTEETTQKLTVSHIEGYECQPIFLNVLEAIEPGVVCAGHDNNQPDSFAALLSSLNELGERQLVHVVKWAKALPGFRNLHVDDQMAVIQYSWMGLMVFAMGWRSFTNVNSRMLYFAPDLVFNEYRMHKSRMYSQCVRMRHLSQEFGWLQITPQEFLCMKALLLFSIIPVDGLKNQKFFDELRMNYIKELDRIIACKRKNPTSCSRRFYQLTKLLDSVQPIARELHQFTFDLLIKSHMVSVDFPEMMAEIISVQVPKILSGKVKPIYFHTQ", "assay": "Subcellular distribution of AR in COS-1 cells (immunofluorescence staining, subcellular fractionation)", "format": "cell-based", "description": "COS-1 cells were seeded on two-well Lab Tek Chamber slides (Nalge) in DMEM containing 10% CD-FBS 18 h before transfection. DNA was transfected by using FuGENE 6 Transfection Reagent (Boehringer Mannheim). After transfection, cells were treated with either 10 nM DHT or vehicle for 12 h. Then cells were fixed with fixation solution (3% paraformaldehyde and 10% sucrose in PBS) for 20 min on ice, followed by permeabilization with methanol for 10 min on ice. Slides were washed and blocked with 2% BSA in PBS for 15 min at room temperature. Then the cells were stained with 1 μg/ml rabbit polyclonal anti-AR antibody (NH27) and 1 μg/ml mouse monoclonal anti-His antibody (Santa Cruz Biotechnology) sequentially at room temperature for 1 h each. After each first Ab incubation, cells were washed and incubated with TexRed-conjugated goat anti-rabbit IgG and FITC-conjugated goat anti-mouse IgG (ICN), respectively. Stained slides were washed and mounted (Vectashield; Vector Laboratories). Fluorescence images were photographed under 400-fold magnification with a confocal microscope.\nTo prepare cytosolic and nuclear fractions of cells, cell monolayers were harvested with ice-cold PBS and pelleted. Cold buffer A (10 mM HEPES-KOH/pH 7.9 at 4° C., 1.5 mM MgCl2, 10 mM KCl, 0.5 mM dithiothreitol, 0.2 mM PMSF) equal to 5 times cell volume was used to resuspend the cells. […]"}},
  "data": [
    {"molecule": "ARA67: AR N-terminal interacting protein of 585 amino acids (SEQ ID NO:1), matches PAT1; functions as a repressor of AR (protein) MAAVELEWIPETLYNTAISAVVDNYIRSRRDIRSLPENIQFDVYYKLYQQGRLCQLGSEFCELEVFAKVLRALDKRHLLHHCFQALMDHGVKVASVLAYSFSRRCSYIAESDAAVKEKAIQVGFVLGGFLSDAGWYSDAEKVFLSCLQLCTLHDEMLHWFRAVECCVRLLHVRNGNCKYHLGEETFKLAQTYMDKLSKHGQQANKAALYGELCALLFAKSHYDEAYKWCIEAMKEITAGLPVKVVVDVLRQASKACVVKREFKKAEQLIKHAVYLARDHFGSKHPKYSDTLLDYGFYLLNVDNICQSVAIYQAALDIRQSVFGGKNIHVATAHEDLAYSSYVHQYSSGKFDNALFHAERAIGIITHILPEDHLLLASSKRVKALILEEIAIDCHNKETEQRLLQEAHDLHLSSLQLAKKAFGEFNVQTAKHYGNLGRLYQSMRKFKEAEEMHIKAIQIKEQLLGQEDYEVALSVGHLASLYNYDMNQYENAEKLYLRSIAIGKKLFGEGYSGLEYDYRGLIKLYNSIGNYEKVFEYHNVLSNWNRLRDRQYSVTDALEDVSTSPQSTEEVVQSFLISQNVEGPSC", "values": [
      {"measurement": "repression of AR activity relative to PR activity", "setting": "AR [1]", "result": "approximately 2.5 times"},
      {"measurement": "suppression on AR activity", "setting": "AR [1]; H1299 cells, 500 ng pSG5-ARA67, MMTV-Luc, cognate ligand", "result": 50, "unit": "%"},
      {"measurement": "DHT-induced AR transactivation", "setting": "AR [1]; H1299 cells, MMTV-Luc and ARE4-Luc, 10 nM DHT", "result": "suppressed"},
      {"measurement": "ARA70N enhanced AR transactivation", "setting": "AR [1]; H1299 cells, PSA-Luc and ARE4-Luc, 10 nM DHT", "result": "repressed dose-dependently"},
      {"measurement": "AR protein level", "setting": "AR [2]", "result": "slightly increased"},
      {"measurement": "AR level in nuclear fraction", "setting": "AR nuclear translocation; Western blot, after DHT treatment", "result": "decreased"},
      {"measurement": "nuclear translocation of AR", "setting": "AR nuclear translocation; immunofluorescence staining, DHT treatment", "result": "block the nuclear translocation"}
    ]}
  ]
}
